Laboratory results published in patent US20050181479A1 (AstraZeneca / MedImmune, published 2005).

Target: T1, human EphA2-Fc (human, UniProt P29317 25-534, limits assumed, biotinylated in the capture ELISA (sites not given))
T1 construct: also called biotinylated human EphA2-Fc; human receptor tyrosine kinase EphA2; not shown: Fc portion; species, isotype and any linker are not described
Assay: EphA2-specific capture ELISA: Fab from E. coli samples captured on anti-human Fab or anti-Fd, detected with biotinylated human EphA2-Fc
Method: Capture ELISA: An EphA2-specific capture ELISA was carried out as follows: briefly, individual wells of a 96-well Maxisorp Immunoplate were coated with 20 or 2000 ng of a goat anti-human Fab antibody (Cappel, Calif.) or of a sheep anti-human Fd (BioDesign, ME), blocked with 3% BSA/PBS for 2 h at 37° C. and then incubated with 75 μl of the various samples (supernatants, periplasmic extracts and whole cell extracts of G5 Fab, 12G3 Fab, irrelevant Fab and variants thereof) for 2 hours at room temperature. 300 ng/well of biotinylated human EphA2-Fc was then added for 1.5 hours at room temperature. This was followed by incubation with a neutravidin-horseradish peroxidase (HRP) conjugate for 40 min at room temperature. HRP activity was detected with tetra methyl benzidine (TMB) substrate and the reaction quenched with 0.2 M H₂SO₄. Plates were read at 450 nm.

T1 sequence (P29317 25-534 limits assumed): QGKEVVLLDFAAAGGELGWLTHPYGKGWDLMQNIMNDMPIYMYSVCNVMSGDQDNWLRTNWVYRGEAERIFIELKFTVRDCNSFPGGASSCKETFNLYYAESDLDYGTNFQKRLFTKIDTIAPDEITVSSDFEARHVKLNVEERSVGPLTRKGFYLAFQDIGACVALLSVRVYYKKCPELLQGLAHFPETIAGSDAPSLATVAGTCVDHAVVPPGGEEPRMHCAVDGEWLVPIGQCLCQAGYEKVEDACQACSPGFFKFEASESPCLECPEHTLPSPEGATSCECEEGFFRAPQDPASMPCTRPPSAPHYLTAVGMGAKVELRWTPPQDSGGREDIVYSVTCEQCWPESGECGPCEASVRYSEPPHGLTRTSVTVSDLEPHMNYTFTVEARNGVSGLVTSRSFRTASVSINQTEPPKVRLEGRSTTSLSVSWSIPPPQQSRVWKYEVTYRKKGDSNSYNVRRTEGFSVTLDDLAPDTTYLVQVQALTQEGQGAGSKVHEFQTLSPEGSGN

| Binder | binding result |
| --- | --- |
| G5 Fab (Fab, V domains shown, Fab expressed in E. coli TG1 from an M13-based phage vector and tested as unpurified supernatant, periplasmic extract or whole cell extract; They are kept as one molecule, since the leader is not part of the mature Fab; also called mAb G5; anti-EphA2 Fab) VH: QMQLVQSGPEVKKPGTSVKVSCKASGFTFTDYSMNWVRQARGQRLEWIGFIRNKANDYTTEYSASVKGRVTITRDMSTSTAYMELSSLRSEDTAVYYCARYPRYHAMDSWGQGTSVTVSS VL: DIQMTQSPSSLSASVGDRVTITCRASQSISNNLHWYQQKPGKAPKLLIKYVFQSISGVPSRFSGSGSGTDFTFTISSLQPEDFATYYCQQSNSWPLTFGGGTKVEIK | binds |
| 12G3 Fab (Fab, V domains shown, Fab expressed in E. coli TG1 from an M13-based phage vector and tested as unpurified supernatant, periplasmic extract or whole cell extract; They are kept as one molecule, since the leader is not part of the mature Fab; also called mAb12G3; anti-EphA2 Fab) VH: QMQLVQSGPEVKKPGTSVKVSCKASGFTFDDYSMNWVRQARGQRLEWIGFIRNKANDYTTEYSASVKGRVTITRDMSTSTAYMELSSLRSEDTAVYYCARYPRHHAMDSWGQGTSVTVSS VL: DIQMTQSPSSLSASVGDRVTITCRASQSISNNLHWYQQKPGKAPKLLIKYAFQSISGVPSRFSGSGSGTDFTFTISSLQPEDFATYYCQQANSWPLTFGGGTKVEIK | binds |
